The values below come from US20170267761A1 (H LUNDBECK A S, published 2017).

The assay addresses T1, Sortilin SORTECD_HIS (human, UniProt Q99523 78-755).
T1 construct: also called Sortilin-ECD-His; HIS-tagged Sortilin ECD
T1 sequence: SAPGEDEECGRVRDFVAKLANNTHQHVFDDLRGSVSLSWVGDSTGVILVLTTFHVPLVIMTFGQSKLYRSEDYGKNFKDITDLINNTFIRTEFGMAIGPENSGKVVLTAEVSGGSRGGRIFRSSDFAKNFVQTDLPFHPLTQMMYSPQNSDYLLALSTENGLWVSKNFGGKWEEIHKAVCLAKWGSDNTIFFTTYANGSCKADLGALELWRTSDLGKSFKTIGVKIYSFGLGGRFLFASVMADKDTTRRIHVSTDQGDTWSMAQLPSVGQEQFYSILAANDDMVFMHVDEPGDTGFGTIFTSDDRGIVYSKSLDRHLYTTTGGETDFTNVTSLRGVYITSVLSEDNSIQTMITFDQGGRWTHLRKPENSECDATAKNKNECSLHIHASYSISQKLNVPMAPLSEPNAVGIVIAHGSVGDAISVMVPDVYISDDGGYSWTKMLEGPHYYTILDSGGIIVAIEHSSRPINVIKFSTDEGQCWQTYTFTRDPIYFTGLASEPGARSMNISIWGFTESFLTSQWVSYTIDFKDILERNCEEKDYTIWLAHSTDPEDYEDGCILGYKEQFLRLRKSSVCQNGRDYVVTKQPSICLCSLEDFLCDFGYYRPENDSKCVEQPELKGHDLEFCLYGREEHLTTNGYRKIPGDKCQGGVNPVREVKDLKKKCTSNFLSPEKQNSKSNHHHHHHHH
Nature of the assay: HTRF, displacement of PGRN from His-tagged Sortilin ECD. The protocol: Dose-response evaluation of antibodies was performed with ten concentrations covering 50 pM to 1 μM in a 3-fold dilution curve. The half-maximal inhibitory concentration (IC50) values were calculated by non-linear regression using sigmoidal concentration response (variable slope) in XLfit 4 (IDBS, UK).
Experiments were performed in assay buffer (50 mM Phosphate, pH 7.0, 0.1% BSA) in a total volume of 20 μl in a Greiner 384 well, white, low volume microtiter plate, (784075, Greiner).

B1: 1289 (antibody, V domains shown)
VH: EVQLLESGGGLVQPGGSLRLSCAASGFTFSSFAMSWVRQAPGKGLEWVSAISGSGGSTYYADSVKGRFTISRDNSKNTLSLQMNSLRAEDTAVYYCATPITLVRGVGAFDIWGQGTMVTVSS
VL: not shown
notes: the sheets print 1289 only, the text names its one 1289 antibody 1289-02; also called IgG1-6003-1289; Antibody 1289-02
Turning to B1, the “% inh highest conc” value is 98%.

B2: 1320 (antibody, V domains shown)
VH: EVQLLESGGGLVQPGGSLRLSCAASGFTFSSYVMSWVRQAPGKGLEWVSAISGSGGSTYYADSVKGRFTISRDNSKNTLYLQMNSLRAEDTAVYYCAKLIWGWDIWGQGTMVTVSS
VL: EIVLTQSPATLSLSPGERATLSCRASQSVSSYLAWYQQRPGQAPRLLIYDASNRATGIPARFSGSGSGTDFTLSISSLEPEDFAVYYCQQRTNWSITFGQGTRLEIK
notes: also called Antibody 1320; Ab 1320
For the molecule B2, the “% inh highest conc” value worked out at 75%.
